Measured values as given in US20160368965A1 (IMMATICS BIOTECHNOLOGIES, published 2016).

Molecular target: T1, HLA-A*02:01 (human)
T1 construct: the tested peptide takes its place; also called peptide-receptive MHC molecules; MHC class I
Assay: UV-ligand exchange, anti-β2m ELISA; grade of peptide exchange yield
Source text: Candidate peptides for T cell based therapies according to the present invention were further tested for their MHC binding capacity (affinity). The individual peptide-MHC complexes were produced by UV-ligand exchange, where a UV-sensitive peptide is cleaved upon UV-irradiation, and exchanged with the peptide of interest as analyzed. Only peptide candidates that can effectively bind and stabilize the peptide-receptive MHC molecules prevent dissociation of the MHC complexes. To determine the yield of the exchange reaction, an ELISA was performed based on the detection of the light chain (β2m) of stabilized MHC complexes. The assay was performed as generally described in Rodenko et al. (Rodenko et al., 2006).
96 well MAXISorp plates (NUNC) were coated over night with 2 ug/ml streptavidin in PBS at room temperature, washed 4× and blocked for 1h at 37° C. in 2% BSA containing blocking buffer. Refolded HLA-A*02:01/MLA-001 monomers served as standards, covering the range of 15-500 ng/ml. Peptide-MHC monomers of the UV-exchange reaction were diluted 100 fold in blocking buffer. Samples were incubated for 1 h at 37° C., washed four times, incubated with 2 ug/ml HRP conjugated anti-β2m for 1h at 37° C., washed again and detected with TMB solution that is stopped with […]. Absorption was measured at 450 nm. Candidate peptides that show a high exchange yield (preferably higher than 50%, most preferred higher than 75%) are generally preferred for a generation and production of antibodies or fragments thereof, and/or T cell receptors or fragments thereof, as they show sufficient avidity to the MHC molecules and prevent dissociation of the MHC complexes.

peptide exchange yield [%]	Binder
50 to 75	ILAQVGFSV [ILAQVGFSV (SEQ ID NO: 44)]
50 to 75	VLFSGSLRL [VLFSGSLRL (SEQ ID NO: 69)]
50 to 75	VLDEFYSSL [VLDEFYSSL (SEQ ID NO: 28)]
≥ 75	VMVDGKPVNL [VMVDGKPVNL (SEQ ID NO: 73)]
≥ 75	RLFPGSSFL [RLFPGSSFL (SEQ ID NO: 77)]
≥ 75	TLFSEPKFAQV [TLFSEPKFAQV (SEQ ID NO: 64)]
50 to 75	YIDKDLEYV [YIDKDLEYV (SEQ ID NO: 74)]
20 to 50	NLIGVTAEL [NLIGVTAEL (SEQ ID NO: 56)]
20 to 50	FLGDLSHLL [FLGDLSHLL (SEQ ID NO: 36)]
50 to 75	LLSDPIPEV [LLSDPIPEV (SEQ ID NO: 52)]
50 to 75	TLLAHPVTL [TLLAHPVTL (SEQ ID NO: 27)]
50 to 75	LTQPGPIASA [LTQPGPIASA (SEQ ID NO: 54)]
20 to 50	LLGPAGARA [LLGPAGARA (SEQ ID NO: 51)]
50 to 75	VMASPGGLSAV [VMASPGGLSAV (SEQ ID NO: 72)]
≥ 75	VIWGTDVNV [VIWGTDVNV (SEQ ID NO: 67)]
50 to 75	ALYTGSALDFV [ALYTGSALDFV (SEQ ID NO: 8)]
20 to 50	LLDGFPRTV [LLDGFPRTV (SEQ ID NO: 49)]
20 to 50	KLDSSGGAVQL [KLDSSGGAVQL (SEQ ID NO: 23)]
20 to 50	GLAPQIHDL [GLAPQIHDL (SEQ ID NO: 40)]
10 to 20	SVFPGARLL [SVFPGARLL (SEQ ID NO: 62)]
50 to 75	ILSTEIFGV [ILSTEIFGV (SEQ ID NO: 22)]
50 to 75	SLQDTEEKSRS [SLQDTEEKSRS (SEQ ID NO: 78)]
50 to 75	LLFGSDGYYV [LLFGSDGYYV (SEQ ID NO: 50)]

peptide exchange yield [%]	Binder
50 to 75	LLDENGVLKL [LLDENGVLKL (SEQ ID NO: 48)]
50 to 75	GLVDGRDLVIV [GLVDGRDLVIV (SEQ ID NO: 21)]
50 to 75	VLLPEGGITAI [VLLPEGGITAI (SEQ ID NO: 71)]
50 to 75	ILSDMRSQYEV [ILSDMRSQYEV (SEQ ID NO: 42)]
20 to 50	FLTPSIFII [FLTPSIFII (SEQ ID NO: 39)]
50 to 75	SLYTALTEA [SLYTALTEA (SEQ ID NO: 26)]
≥ 75	FILPIGATV [FILPIGATV (SEQ ID NO: 84)]
50 to 75	RLSELGITQA [RLSELGITQA (SEQ ID NO: 57)]
≥ 75	SVTGIIVGV [SVTGIIVGV (SEQ ID NO: 63)]
20 to 50	SMYDGLLQA [SMYDGLLQA (SEQ ID NO: 61)]
50 to 75	ALVDIVRSL [ALVDIVRSL (SEQ ID NO: 7)]
50 to 75	ALLTGIISKA [ALLTGIISKA (SEQ ID NO: 5)]
50 to 75	TMVEHNYYV [TMVEHNYYV (SEQ ID NO: 46)]
20 to 50	NLAPAPLNA [NLAPAPLNA (SEQ ID NO: 55)]
50 to 75	VLFDVTGQV [VLFDVTGQV (SEQ ID NO: 68)]
50 to 75	SLSESFFMV [SLSESFFMV (SEQ ID NO: 59)]
50 to 75	ALTGIPLPLI [ALTGIPLPLI (SEQ ID NO: 6)]
50 to 75	ALDPAAQAFLL [ALDPAAQAFLL (SEQ ID NO: 4)]
20 to 50	GLLAGNEKLTM [GLLAGNEKLTM (SEQ ID NO: 41)]
20 to 50	YIYKDTIQV [YIYKDTIQV (SEQ ID NO: 30)]
20 to 50	LINPNIATV [LINPNIATV (SEQ ID NO: 25)]
20 to 50	YVDDGLISL [YVDDGLISL (SEQ ID NO: 32)]
50 to 75	LIYKDLVSV [LIYKDLVSV (SEQ ID NO: 47)]

peptide exchange yield [%]	Binder
50 to 75	YLDSMYIML [YLDSMYIML (SEQ ID NO: 31)]
20 to 50	HLGVKVFSV [HLGVKVFSV (SEQ ID NO: 43)]
50 to 75	ILIGETIKI [ILIGETIKI (SEQ ID NO: 3)]
50 to 75	LLPGTEYVVSV [LLPGTEYVVSV (SEQ ID NO: 80)]
≥ 75	VLGVIWGV [VLGVIWGV (SEQ ID NO: 70)]
50 to 75	FLTEAALGDA [FLTEAALGDA (SEQ ID NO: 38)]
20 to 50	FLEDDDIAAV [FLEDDDIAAV (SEQ ID NO: 34)]
50 to 75	ILYSDDGQKWTV [ILYSDDGQKWTV (SEQ ID NO: 45)]
50 to 75	TLNEKLTAL [TLNEKLTAL (SEQ ID NO: 65)]
20 to 50	FLNPDEVHAI [FLNPDEVHAI (SEQ ID NO: 37)]
50 to 75	ALIAEGIAL [ALIAEGIAL (SEQ ID NO: 82)]
≥ 75	YILPFSEVL [YILPFSEVL (SEQ ID NO: 29)]
≥ 75	FLSDGTIISV [FLSDGTIISV (SEQ ID NO: 85)]
≥ 75	SLWEDYPHV [SLWEDYPHV (SEQ ID NO: 60)]
50 to 75	VVYEGQLISI [VVYEGQLISI (SEQ ID NO: 79)]
50 to 75	VVYDDSTGLIRL [VVYDDSTGLIRL (SEQ ID NO: 81)]
50 to 75	FLFPSQYVDV [FLFPSQYVDV (SEQ ID NO: 35)]
50 to 75	LLWDPSTGKQV [LLWDPSTGKQV (SEQ ID NO: 53)]
20 to 50	KLSENAGIQSL [KLSENAGIQSL (SEQ ID NO: 24)]
20 to 50	RQYPWGVVQV [RQYPWGVVQV (SEQ ID NO: 58)]
50 to 75	ALSKEIYVI [ALSKEIYVI (SEQ ID NO: 83)]
